“Also recorded” adds a separate entry of the source. Like-named read-outs stand apart in the source and are kept apart here. Non-standard residues stand in square brackets, D forms with d. Residues, ends and D or L forms follow the SMILES beside them.
Columns and labels:
lysostaphin CWT domain = molecular target: T1, lysostaphin CWT domain (Staphylococcus simulans, UniProt P10547); format: binding
T1 construct: DNA encoding the CWT domain (residues 402-493) was amplified; GST (from the pGEX-2T vector); made in house; host or cells: E. coli BL21 (DE3)
T1 sequence (P10547 402-493): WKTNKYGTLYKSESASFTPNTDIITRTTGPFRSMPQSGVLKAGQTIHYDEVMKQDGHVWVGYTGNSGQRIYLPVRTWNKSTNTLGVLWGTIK
Procedure: The pentaglycine binding site on the CWT domain was determined by comparing the ^1H, ^15N, and ^1H, ^13C HSQC spectra of full-length lysostaphin and CWT domain acquired in the presence and absence of a large amount, ~170 molar excess, of KGGGGG and GGGGGK hexapeptides (Sigma-Aldrich). […] CSPs, calculated as Δδ = (ΔδH^2+(0.154 × ΔδN)^2)^1/2, were plotted as a function of the molar ratio of titrated ligand to CWT domain. Dissociation constants for individual residues were obtained by nonlinear least squares fitting, as implemented in the program xcrvfit (www.bionmr.ualberta.ca/bds/software/xcrvfit). Site-specific dissociation constants were calculated as averages of dissociation constants of individual residues within the site. In all binding site studies protein to zinc concentration ratio was 1:1.

[1] = effect of presence of lysine, relative to pentaglycine
[2] = Pentaglycine cleavage by lysostaphin monitored by 1H NMR; format: biochemical; settings: for Relative activity: PBS pH 7.2, 21 h, 37 °C
Procedure: Pentaglycine cleavage by lysostaphin was monitored by ^1H NMR as described previously (Raulinaitis et al., [2017a]). Reactions took place in phosphate buffer saline (PBS), pH 7.2, with >90% D2O by volume as a solvent and final volumes were 600 μL. Initial pentaglycine (Sigma-Aldrich) and lysostaphin concentrations were 1 mM and 2.25 μM, respectively. Metal ions (ZnCl2, CoCl2, CuCl2, and MnCl2) were added as needed. Residual activity of lysostaphin “apo” form was taken into account in activity calculations. Measurements were carried out by using a Bruker Avance III 600 MHz spectrometer, equipped with a QCI ^1H/^13C/^15N/^31P cryoprobe and a SampleJet automated sample changer. The preheater of the sample changer was used for sample incubation when product formation was measured as a time series with 3-h intervals for 48 h. Single time-point samples were incubated in an incubator for 21 h and reactions were quenched by heating at 90°C for 15 min before proton spectra acquisitions at 37°C. The data were processed with Bruker TopSpin 3.5 software.
Proton NMR allows for direct and real-time reaction monitoring devoid of intricacies of cellular suspension (Raulinaitis et al., [2017a]). Scission of pentaglycine by lysostaphin was monitored for 48 h by ^1H NMR and under conditions of this study its catalytic rate appeared to be limited only by saturation with the substrate (Supplementary Figure 4). The substrate turnover rate by the enzyme in the first 3 h of the reaction is estimated to be in the order of 0.006 s^−1.
Figure 4 Lysostaphin activity dependence on zinc, cobalt, copper and manganese cofactors. Lysostaphin was incubated with pentaglycine (2.25 μM and 1 mM concentrations, respectively) in PBS buffer, pH 7.2, for 21 h at 37°C. Total cofactor ratios to protein were 1:1 and 3:1, EDTA excess was 70-fold. […] Activity was adjusted to one zinc-bound lysostaphin as 100% reference point. Bars represent standard error of the mean (S.E.M) of at least three independent measurements. TEXT PRINTED IN THE PICTURE: 1 Zn: Relative activity, %: 100.0 | 3 Zn: Relative activity, %: 79.8 | 1 Cu: Relative activity, %: 96.4 | 3 Cu: Relative activity, %: 183.3 | 1 Mn: Relative activity, %: 38.8 | 3 Mn: Relative activity, %: 40.3 | 1 Co: Relative activity, %: 79.1 | 100 EDTA: Relative activity, %: 12.8

[3] = test system: CWT binding to S. aureus cells; set-up: method as in Gründling and Schneewind, 2006; settings: excess of pentaglycine; ref Gründling and Schneewind, 2006; cited from earlier work
[4] = molecular target: T2, lysostaphin cell wall targeting (CWT) domain (residues 402-493) (Staphylococcus simulans, UniProt P10547 402-493); assay: NMR titration; 1H,15N and 1H,13C HSQC spectra of the CWT domain with and without ~170 molar excess of hexapeptide; chemical shift perturbations; protein to zinc 1:1; settings: both partners purified
T2 construct: also called targeting domain; SH3b domain; source: E. coli BL21 (DE3), purified (Glutathione Sepharose, thrombin release, gel filtration on Superdex 75)
T2 sequence (P10547 402-493): as above

[5] = ~80 molar excess of the peptide, data not shown

With `C[C@H](N)C(=O)N[C@H](CCC(=O)O)C(=O)N[C@@H](CCCCN)C(=O)NCC(=O)NCC(=O)NCC(=O)NCC(=O)NCC(=O)N[C@@H](C)C(=O)N[C@H](CCC(=O)O)C(=O)N[C@@H](CCCCN)C(=O)N[C@H](C)C(=O)O` (H-A[dE]KGGGGGA[dE]K[dA]-OH; N-terminus and C-terminus assumed) the CSPs (lysostaphin CWT domain; ~24 molar excess) was “significant CSPs”.

For GGGGGK [G5K], the “Largest peak shifts, Δδ (CSP)” value (lysostaphin CWT domain; residues N405, Y411, G430-F432, V452, M453, Y472, ~170 molar excess) was at least 0.10 ppm and the solubility [1] was “significantly enhanced the solubility”.

In the case of KGGGGG [KG5], the solubility [1] is reported as “significantly enhanced the solubility”.

Work on “Lysostaphin: S. simulans zinc-dependent endopeptidase with N-terminal catalytic domain and C-terminal cell wall targeting domain” yielded a Relative activity ([2]; 1 Co (1:1 cofactor to protein), adjusted to one zinc-bound lysostaphin = 100%, 2.25 μM lysostaphin, 1 mM pentaglycine, n ≥ 3) of 79.1%, a Relative activity ([2]; 1 Cu (1:1 cofactor to protein), adjusted to one zinc-bound lysostaphin = 100%, 2.25 μM lysostaphin, 1 mM pentaglycine, n ≥ 3) of 96.4% and a Relative activity ([2]; 1 Mn (1:1 cofactor to protein), adjusted to one zinc-bound lysostaphin = 100%, 2.25 μM lysostaphin, 1 mM pentaglycine, n ≥ 3) of 38.8%. It also gave a Relative activity ([2]; 1 Zn (1:1 cofactor to protein), reference point 100%, 2.25 μM lysostaphin, 1 mM pentaglycine, at least three independent measurements) of 100.0%, a Relative activity ([2]; 3 Cu (3:1 cofactor to protein), adjusted to one zinc-bound lysostaphin = 100%, 2.25 μM lysostaphin, 1 mM pentaglycine, n ≥ 3) of 183.3% and a Relative activity ([2]; 3 Mn (3:1 cofactor to protein), adjusted to one zinc-bound lysostaphin = 100%, 2.25 μM lysostaphin, 1 mM pentaglycine, n ≥ 3) of 40.3%. For the same molecule, the Relative activity ([2]; 3 Zn (3:1 cofactor to protein), adjusted to one zinc-bound lysostaphin = 100%, 2.25 μM lysostaphin, 1 mM pentaglycine, n ≥ 3) was 79.8%, the Relative activity ([2]; 100 EDTA (EDTA excess, residual activity), adjusted to one zinc-bound lysostaphin = 100%, 2.25 μM lysostaphin, 1 mM pentaglycine, n ≥ 3) was 12.8% and the “change of catalytic activity” value ([2]; Cu^2+ in excess) was “activity increases”. For the same molecule, the “cofactor suitability for catalytic activity” value ([2]; Mn^2+) was “weak cofactor”, the “change of catalytic activity” value ([2]; excess of zinc (second zinc bound by catalytic histidines H329 and H360)) was “reduces lysostaphin pentaglycine cleaving activity; also recorded: partial inhibition” and the substrate turnover rate ([2]; first 3 h of the reaction, 1 mM pentaglycine, 2.25 μM lysostaphin, PBS pH 7.2, 37 °C, 1H NMR every 3 h for 48 h, estimated) was about 0.006 s⁻¹. The “cofactor suitability for catalytic activity” value ([2]; metal cations Zn^2+, Co^2+, and Cu^2+) was “suitable cofactors”.

In the case of “N-acetylmuramyl-L-alanyl-D-isoglutamine hydrate [N-acetylmuramyl-L-A-D-γ-Q hydrate]”, the CSPs (lysostaphin CWT domain; [5]) is reported as “very small CSPs” and the “affinity of CWT domain” value (lysostaphin CWT domain; [5]) is reported as “no significant affinity”.

For pentaglycine, the “affinity of targeting (CWT) domain in words” value (lysostaphin CWT domain; abstract / conclusions summary) is listed as “very low affinity; also recorded: extremely low affinity” and the “blocking of CWT binding to S. aureus cells” value [3] is listed as “cannot be blocked”.

B1: GGGGGK hexapeptide (peptide)
peptide: GGGGGK
notes: also called G5K; source: bought: Sigma-Aldrich
B1 gave a Kd [4] of over 10 mM.
